Measurements reported in paper PMC8473724.
Each block holds one substance with its values, some of them ahead of it.

Tests used:
GRB2 = GRB2 (UniProt P62993); assay: anti-Myc co-IP, anti-GRB2 immunoblot; settings: reference: CD22-Myc wild type; sites Y807
[1] = target: intersectin-2 (ITSN2) [human (endogenous in Ramos)]; assay: anti-FLAG co-immunoprecipitation, SILAC LC-MS; settings: Ramos PTP1B KO cells; n = 3; read off a plot; scale: log10 SILAC ratio
CDC20 = assay: anti-FLAG co-immunoprecipitation, SILAC LC-MS; settings: Ramos PTP1B KO cells; n = 3; read off a plot; scale: log10 SILAC ratio
ARHGAP12 iso 3 = assay: anti-FLAG co-immunoprecipitation, SILAC LC-MS; settings: Ramos PTP1B KO cells; n = 3; read off a plot; scale: log10 SILAC ratio
ARHGAP12 iso 2 = assay: anti-FLAG co-immunoprecipitation, SILAC LC-MS; settings: Ramos PTP1B KO cells; n = 3; read off a plot; scale: log10 SILAC ratio
TNK2 = assay: anti-FLAG co-immunoprecipitation, SILAC LC-MS; settings: Ramos PTP1B KO cells; n = 3; read off a plot; scale: log10 SILAC ratio
PTRH2 = assay: anti-FLAG co-immunoprecipitation, SILAC LC-MS; settings: Ramos PTP1B KO cells; n = 3; read off a plot; scale: log10 SILAC ratio
ANKLE2 = assay: anti-FLAG co-immunoprecipitation, SILAC LC-MS; settings: Ramos PTP1B KO cells; n = 3; read off a plot; scale: log10 SILAC ratio

binding against the reference (GRB2): lost
Substance: CD22 (from UniProt P20273) Y807F

enrichment [1]: 0.5
Substance: FLAG-PTP1B WT (protein tyrosine phosphatase 1B) mutant D181A; Y46F [not stated] / intersectin-2 (ITSN2) [human (endogenous in Ramos)] chain 1 Y46F, chain 1 D181A

enrichment (CDC20): 0.88
enrichment (ARHGAP12 iso 3): 1.2
enrichment (ARHGAP12 iso 2): 1.6
enrichment (TNK2): 0.6
enrichment (PTRH2): 1.4
enrichment (ANKLE2): 0.97
Substance: FLAG-PTP1B WT (protein tyrosine phosphatase 1B) (from UniProt P18031) D181A; Y46F
